This data set can be described thus: soluble on expression in E. coli; label from the status in PepcDB or PDB records.
On to “MSTKEEITKEIEEQGAEVRRVKGDKNSTEEAKKEAIDKLLALKLTYKEVTGQEYAAPNARQSKPKKEEKPKQQPKQQEKKQDGKKQTLLGVGTKKDDNYSEWYSEVITKAEMIEYYDVSGCYVLRPWSFAVWESIQEWFDSGIKKLGVKNCYFPMFVSNAALEREKTHIADFAPEVAWVTRAGNSEMAEPIAIRPTSETVMYPSYKKWVQSHRDLPIKLNQWCNVVRWEFKHPTPFLRTREFLWQEGHTAFANPADAEKEVFQILDLYAGVYTDLLAIPVVKGRKSEKEKFAGGDFTTTVEAYVACNGRGIQGATSHHLGQNFSKMFDISYEDPAKEGERAFAWQNSWGLSTRTIGAMVMIHGDDKGLVLPPRVAAVQVIVVPVGFKTENKQSLFDAVDKVTKDLVADGVKAEHDLRENYNAGWKFNHWELKGVPIRFEVGPNDLAKNQVTAVIRHNGEKKQLSLEGLSKTVKSLLDEIHTAMYNKVLAQRDSHLKSTTCIEEFKKLLDEKCIILSPFCGRPDCEEEIKKASTREDGEGAQMGAKTLCIPLDQPKQELPSKCLFPSCTYNAKAFALFGRSY”, for which the “soluble on expression in E. coli” value is given as “not soluble”. In the case of “MSTKLYYIYDPMCSWCWGYRPVWDLLQQHLPKSIDVEYVAGGLAPDSDSAMPIDQQQMIQNHWRTIEQKLGTKFNYDFWRENTARRSTYNACRAAIAAHKQSCQKAMIDAIQQAYYLRALNPSDVDVLVSVAKELSEQTSPTLDVAQFIVDINSSETNKELAKQVTLARELTQQGFPSLVLDVDGVIQQIPLDYSDYKTTLAYIIKKTS” it was “not soluble”. As to “MSTKPAAAKTKPSCSEGGDLRVETENGETFITATQRADGTWRKARRVKGGYIPQDEQPKYQNKMQLEATNGRSSVPAGVNPRAMASGSSRKPVSAIKANVCITPQDHFQKKIDLTKKKIEDIEGMESRIASGELVPQPNQVKKIARKQEYLDEIEKLTLEMKKL”, the “soluble on expression in E. coli” value is recorded as “not soluble”. In the case of “MSTKSIATSSTASSSSSHHQEHTVTELIMFFTSEEPPEPEPFSRSTEKSGIRTSKVITRTITISAETKLKMDLLEEQRREKRVKLEIEKSRIRAENLQRMQEISSEPKTRGSKRSLMRRAAKRTKGRISSLLIRDSSVDSGSITDKALKDKKRGLSLEWEVKDQGRFAESFSDSRLMEMFQHPSGMPIEPDVMMEGYLYKRSSNAFKTWNRRWFQIKDKQLLYSHRSTDLEPATIMEENLRICLVRPAPSNIDRIGCFELVTPTRIHLLQADSESLCQDWMRALQRTILALHEGDSVDVASTSPRNKTTSMSSGVTLTSANAISPLSNAMDVTKGRSVSDPASTYTSANTSSISTAAGFSSSTTAFEQVRRVPGNEVCADCGSPAPKWVSINLGVVLCIECSGAHRSLGVQTSKVRSLCMDSIDNELRDVLLALGNRQVNEIFLAHLPPADSIVPPQINEKSARPAREAWIKAKYVERRFAVAEDTRARSSATNRQEHLKHKTSIGGNSSSNGVNRSSSYADVQDAESGGLLDADPWSADLSVPVPTASKRLSACGSDTNLDAIGSSSIDTKTVEWDSVKEACECGDLLALMTAYAQGFDLNALHNGTTALHIATRNGQTAAVEFLLLNGAKINMLDEKLNTPLHLAAKEGHTLPVCQLLKRGADSNLANVDSKTPLDIAMECTHADIVTLFRVTIMRNDFNADFNNPMDETVEAVISDIARRAATEKEQKKTESLKSTSDI” it was “not soluble”.

In the case of “MSTLIECGASPFIPGFALKDVRLENGLTVRVAIGGSGSPLVLLHGHPQNHTTWRKVAPTLAQNHTVILPDLRGYGDSDKPTSDPAHRTYSKRTMAQDIVMLMDALGFSRFAFVGHDRGGRVGHRLALDYPDRVTCCTFIDIAPTATMYALTDKSFATRYFWWFFLIQPFPLPETMIAHDPAFFLRKHISGQLKIEGATSQEAFNEYLRCYQNPEMIHAICEDYRAAATIDLDDDAADTSARIRCPLQLLWGGLGTVGQLYNVVGTWKEKALNVQGEALPCGHSPQEECPEYFIQKLQSFLHSVL”, the “soluble on expression in E. coli” value is reported as “soluble”.

In the case of “MSTPRTVLVVGGGAAGNAVTILLRRAGLTVDLVEAKDDWNATAGSGITLQGNALRVLRELGVWEQVEASGFGFGSVGITTPDGTVLHVQDDLRTGGDDLPATVGMQRPRLQQILIEAVRASGASVRLGTTAEILDQDSDGVHVRLSDGSEHRYDLVVAADGLGSATRAAIGITDKPEPTGMAIWRIAAPRPAGLTRTDLAYGGPAHIAGYCPTGETTLYAYVVEANRDRAGIPPASYADEMRGLTRHYGGFWPDITEHITDPAKVNYTWFDRLLVEGSWHRGRVVLVGDAAHCCPPTLAQGAALSLEDAWVLAQMLTGSDVWDDALFQAYYERRIARVRPVVAASVQIGQWQLDGVRDADLPGLMGRTMTMLRELPLEHHHHHH”, the “soluble on expression in E. coli” value was “not soluble”.

On to “MSTPTGQPIGLGLPDAPLPVLAPRRKTRQLMVGNVGVGSDYPVSVQSMTTTKTHDVNATLQQIAQLTASGCDIVRVACPKTVDAEALPAIAKKSPIPVIADIHFQPKYIFSAIDAGCAAVRVNPGNIKEFDGRVKEVAKAAGDAGIPIRIGVNAGSLDKRIMEKYGKATPEALVESALWEAGLFEDCGFGDIAISVKHNDPVIMVEAYRQLAAQSDYPLHLGVTEAGPAFQGTIKSSVAFGSLLSQGIGDTIRVSLSADPVEEIKVGDQILQSLNLRKRGLEIVSCPSCGRAQVDVYSLAEEVTAALDGMSIPLRVAVMGCVVNGPGEARDADLGVASGNGKGQIFVRGEVIKTVPESQIVETLIEEAVRLAEAEGLEIEEGAGPQVKITR”, for which the “soluble on expression in E. coli” value is reported as “not soluble”. In the case of “MSTQPDTSLRATKRLKTRISVEDAATALVLRDGFDNVTVEDICAAAEISKRTFFNYFDSKENAVFGDIQVDILPQLREEFLSHPHEDLPEAVIRLHMNLVFSGKDFDPHTRGEIIRRRKTIRHNNPERSFNYNALYHKVFINFKTLVNEYFEHFPEQRRLGGDVDVEATAVVLSSSYAIRFGFTLWADSPSASFSTLEESCLEALVHLRTINKGL” it was “not soluble”; in that of “MSTSDTPRTYHHGNLPAVLRQAAWDIVGEAGVRSVSLRECARRANVSHAAPAHHFGSLENLLAEVVADGYERMVDAVQAAQRELDDPVLGCGMGYVNFARQYPQHFRLMFGMTGVNRALPRLVNSGEATLQLLRQSLRTAWIAKNGVEPEPALLEQRTLLAWSTAHGYASLAIDRTTVEPFVVSAESILQPMAVFLLTP”, “not soluble”; in that of “MSTSSVRFAFRRFWQSETGPKTVHFWAPTLKWGLVFAGFSDMKRPVEKISGAQNLSLLSTALIWTRWSFVIKPRNILLASVNSFLCLTAGYQLGRIANYRIRNGDSISQLCSYILSGADESKKEITTGR”, “not soluble”.

“MSTTANKERCLEMVAAWNRWDVSGVVAHWAPDVVHYDDEDKPVSAEEVVRRMNSAVEAFPDLRLDVRSIVGEGDRVMLRITCSATHQGVFMGIAPTGRKVRWTYLEELRFSEAGKVVEHWDVFNFSPLFRDLGVVPDGL”: the “soluble on expression in E. coli” value was “soluble”. In the case of “MSTTKKGDTYNEAWVKDTNGFDILMGQFAHNIENIWGFKEVVIAGPKDYVKYTDQYQTRSHINFDDGTITIETIAGTEPAAHLRRAIIKTLLMGDDPSSVDLYSDVDDITISKEPFLYGQVVDNTGQPIRWEGRASNFADYLLKNRLKSRSNGLRIIYSVTINMVPNHLDKRAHKYLGMVRQASRKYGVDESLILAIMQTESSFNPYAVSRSDALGLMQVVQHTAGKDVFRSQGKSGTPSRSFLFDPASNIDTGTAYLAMLNNVYLGGIDNPTSRRYAVITAYNGGAGSVLRVFSNDKIQAANIINTMTPGDVYQTLTTRHPSAESRRYLYKVNTAQKSYRRRLEHHHHHH” it was “soluble”. With “MSTWRDSLLPASFRGVGFFIEKAVVPVGRKGQLHEFPQRDEPYFESLGKQAQVHTLTAFIVGRDCFEKRDNLLQALEKDGAGELVHPWLGRMQVQV”, the “soluble on expression in E. coli” value is “not soluble”.

In the case of “MSTYDTAVLDDTLVSCLSQLIGAEHIDTLTLEGRFEITRIAAALSGRPGPAPRAILMSGLQGSGKTTLARALEAAGFRRLCPDEEMFRRYGHYGRDFPRGEFRVREAPVLKDIALELQELLTAGHEVVVDHGFWTREERAQWAMTVMEAGGKPVLIYLPVPHEVRWDRIRKRNEQSLVDANSIEFSEEDLLRHAGRFSPPTDDEPHIVYDGQPDSVLADIQLSRHFDALEHHHHHH”, the “soluble on expression in E. coli” value is listed as “not soluble”.

For the origin of these results see the DeepSol protein solubility set.
